For the assay, the target named is T1, recombinant human perlecan domain 1 proteoglycan rhPln.247 (human, UniProt P98160 22-247, heparan sulfate and chondroitin sulfate glycosaminoglycan chains (CS:HS ratio of approximately 2:1); attachment residues not given).
T1 construct: signal peptide in the construct; The secreted product has probably lost the signal peptide; also called rhPln.D1; rPlnD1; source: HEK 293 cells, adenoviral expression system, purified
The experiment in a line: ELISA; rhPln.247 coated directly on polystyrene microtiter wells overnight at 4°C in PBS/N3 at about 1-2 ug/ml; rhBMP-2 or rhBMP-7 serially diluted; retained BMP detected with biotinylated anti-BMP antibodies; background without rhPln.247 subtracted; apparent Kd. The following applies: both partners purified.

1 molecule from publication PMC3485628, “Perlecan domain 1 recombinant proteoglycan augments BMP-2 activity and osteogenesis” (BMC Biotechnology, 2012) can be followed below.

T1 sequence (P98160 22-247): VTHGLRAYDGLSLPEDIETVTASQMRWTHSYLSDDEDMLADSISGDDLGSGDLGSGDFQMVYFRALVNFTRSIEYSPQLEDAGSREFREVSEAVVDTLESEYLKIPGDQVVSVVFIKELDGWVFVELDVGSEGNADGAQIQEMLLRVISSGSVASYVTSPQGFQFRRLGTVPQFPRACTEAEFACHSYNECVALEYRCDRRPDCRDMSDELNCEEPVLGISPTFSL

B1: recombinant human bone morphogenetic protein-7 (ligand)
chain: STGSKQRSQNRSKTPKNQEALRMANVAENSSSDQRQACKKHELYVSFRDLGWQDWIIAPEGYAAYYCEGECAFPLNSYMNATNHAIVQTLVHFINPETVPKPCCAPTQLNAISVLYFDDSSNVILKKYRNMVVRACGCH
notes: bone morphogenetic protein 7, human, recombinant; also called rhBMP-7; rBMP-7; source: bought: R&D Systems
As to B1, the “fold by which rhBMP-2 binds more tightly than rhBMP-7” value was roughly 10 fold.
